US20110015120A1, “Pharmaceutical and cosmetic compositions including lactoferrin, ciclopirox, etidronic acid” (VALETUDO S . r . l ., priority 2009, published 2011)
Several values for one entry are separate records, joined by “and”; a condition that tells them apart may be missing. Equal values may be shown once.

Tested on: MALASSEZIA GLOBOSA
Assay: Inhibition of Malassezia globosa growth, colony count (UFC/ml) on Dixon's Agar
Format: cell-based
Conditions: for dil 10X colony count: 200 μl of suspension diluted 10X on Petri dish; for dil 10X colony count / X50 (calculation made based on the dilution): three replicates; for AVERAGE: average of three replicates; for % reduction of Malassezia globosa cells growth (% increase of antimycotic activity): compared to CICLOPIROXOLAMINE alone; for X50 (calculation made based on the dilution): dil 10X count x50
Protocol: To assess the capacity of the LACTOFERRIN to enhance the antimycotic action of the CIPROPIROXOLAMIN, a suspension of a MALASSEZIA GLOBOSA STRAIN is inoculated on a specific culture medium and the capacity of the compounds to inhibit the mycotic growth is observed, by counting of the UFC/ml.
As first approach, the two compounds are tested at the concentration of 1:500 and, subsequently, diluted in culture medium at 2 decreasing concentrations (10× and 100×) in order to visualize the individual activities. Then in order to evaluate the capacity of the LACTOFERRIN to increase the antimycotic effect of the CICLOPIROXOLAMIN, the same test was carried out on the mix of the two active ingredients at different ratios (1:2 and 1:5).
Each test was performed three times and the incubation times were 1 and 4 hours respectively.
Based on the results obtained, the best dilution for the execution of the tests was the 10× dilution and both the incubation times (1 hour and 4 hours) were taken into consideration since the experimental conditions permitted an accurate count to be carried out of the colonies on the Petri dishes.
The microorganism used is MALASSEZIA GLOBOSA.
The microorganisms were cultured in specific culture medium (Dixon's Agar) until reaching a concentration of approximately […] per ml. Aliquots of 1 ml of this inoculum were then taken to which were added respectively: • Ciclopiroxolamine 1:500 • Lactoferrin 1:500 • Mixture 1:2 Ciclopiroxolamine:lactoferrin • Mixture 1:5 Ciclopiroxolamine:lactoferrin
As positive control, the untreated inoculum was used (MALASSEZIA and diluting liquid), as negative controls the two active ingredients in diluting liquid.
After incubations of 1 hour and 4 hours respectively, aliquots of 200 μl of each suspension were spread on Petri dishes.
For each treatment, the test was carried out three times and for 3 different dilutions (non diluted suspension (TQ), dilution 10× and dilution 100×).
The 54 dishes obtained were then examined, after incubation of 5-6 days and the microbial load of each specimen was calculated (UFC/ml).
The % increase of the antimycotic property corresponds to the % reduction of the growth of Malassezia Globosa

B1: Lactoferrin (protein, UniProt P02788 20-710, looked up)
Lactotransferrin: GRRRSVQWCAVSQPEATKCFQWQRNMRKVRGPPVSCIKRDSPIQCIQAIAENRADAVTLDGGFIYEAGLAPYKLRPVAAEVYGTERQPRTHYYAVAVVKKGGSFQLNELQGLKSCHTGLRRTAGWNVPIGTLRPFLNWTGPPEPIEAAVARFFSASCVPGADKGQFPNLCRLCAGTGENKCAFSSQEPYFSYSGAFKCLRDGAGDVAFIRESTVFEDLSDEAERDEYELLCPDNTRKPVDKFKDCHLARVPSHAVVARSVNGKEDAIWNLLRQAQEKFGKDKSPKFQLFGSPSGQKDLLFKDSAIGFSRVPPRIDSGLYLGSGYFTAIQNLRKSEEEVAARRARVVWCAVGEQELRKCNQWSGLSEGSVTCSSASTTEDCIALVLKGEADAMSLDGGYVYTAGKCGLVPVLAENYKSQQSSDPDPNCVDRPVEGYLAVAVVRRSDTSLTWNSVKGKKSCHTAVDRTAGWNIPMGLLFNQTGSCKFDEYFSQSCAPGSDPRSNLCALCIGDEQGENKCVPNSNERYYGYTGAFRCLAENAGDVAFVKDVTVLQNTDGNNNEAWAKDLKLADFALLCLDGKRKPVTEARSCHLAMAPNHAVVSRMDKVERLKQVLLHQQAKFGRNGSDCPDKFCLFQSETKNLLFNDNTECLARLHGKTTYEKYLGPQYVAGITNLKKCSTSPLLEACEFLRK
Period of incubation 1 hour
  Log (AVERAGE): 4.13
  dil 10X colony count: 303 and 256 and 250
  AVERAGE: 13483.33 UFC/ml
  % reduction of Malassezia globosa cells growth (% increase of antimycotic activity): −39.4%
  X50 (calculation made based on the dilution): 15150 UFC/ml and 12800 UFC/ml and 12500 UFC/ml
Period of incubation 4 hour
  Log (AVERAGE): 4.109
  dil 10X colony count: 340 and 232 and 200
  AVERAGE: 12866.67 UFC/ml
  % reduction of Malassezia globosa cells growth (% increase of antimycotic activity): −695.8%
  X50 (calculation made based on the dilution): 17000 UFC/ml and 11600 UFC/ml and 10000 UFC/ml
